{
  "source": "the supplement of paper PMC9112550",
  "about": "“Optimization of the antimicrobial peptide Bac7 by deep mutational scanning” (BMC Biology, 2022);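 also: peptides expressed intracellularly from a pBAD plasmid library in pooled LB shake-flask culture, induced with 0.3% L-arabinose, DNA abundance read by NGS, three biological replicates, DESeq2 with apeglm shrinkage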",
  "data": [
    {"system": "Escherichia coli TOP10", "experiment": "shrunken log2 fold change of peptide-encoding DNA abundance (4.5 h post-induction vs induction); higher = less antimicrobial activity (less host growth inhibition)", "conditions": "time post-induction: 4.5 h; library: site-saturation at positions 5, 18, 19, 20", "values": [
      {"sequence": "RRIRGRPPRLPRPRPRPNWYPRP", "shrunken log2 fold change": -0.0124},
      {"sequence": "RRIRGRPPRLPRPRPRPNYLPRP", "shrunken log2 fold change": -0.304},
      {"sequence": "RRIRGRPPRLPRPRPRPNYYPRP", "shrunken log2 fold change": -0.254},
      {"sequence": "RRIRGRPPRLPRPRPRPPAIPRP", "shrunken log2 fold change": 0.859},
      {"sequence": "RRIRGRPPRLPRPRPRPPCCPRP", "shrunken log2 fold change": 0.478},
      {"sequence": "RRIRGRPPRLPRPRPRPPCQPRP", "shrunken log2 fold change": 0.283},
      {"sequence": "RRIRGRPPRLPRPRPRPPDLPRP", "shrunken log2 fold change": 0.791},
      {"sequence": "RRIRGRPPRLPRPRPRPPDNPRP", "shrunken log2 fold change": 0.795},
      {"sequence": "RRIRGRPPRLPRPRPRPPEFPRP", "shrunken log2 fold change": 1.01},
      {"sequence": "RRIRGRPPRLPRPRPRPPFCPRP", "shrunken log2 fold change": 0.592},
      {"sequence": "RRIRGRPPRLPRPRPRPPFMPRP", "shrunken log2 fold change": 0.557},
      {"sequence": "RRIRGRPPRLPRPRPRPPGAPRP", "shrunken log2 fold change": 1.51},
      {"sequence": "RRIRGRPPRLPRPRPRPPGCPRP", "shrunken log2 fold change": 0.895},
      {"sequence": "RRIRGRPPRLPRPRPRPPGHPRP", "shrunken log2 fold change": 0.772},
      {"sequence": "RRIRGRPPRLPRPRPRPPHHPRP", "shrunken log2 fold change": 0.537},
      {"sequence": "RRIRGRPPRLPRPRPRPPHKPRP", "shrunken log2 fold change": 0.858},
      {"sequence": "RRIRGRPPRLPRPRPRPPHVPRP", "shrunken log2 fold change": 1.04},
      {"sequence": "RRIRGRPPRLPRPRPRPPIFPRP", "shrunken log2 fold change": 0.35},
      {"sequence": "RRIRGRPPRLPRPRPRPPKDPRP", "shrunken log2 fold change": 0.799},
      {"sequence": "RRIRGRPPRLPRPRPRPPKEPRP", "shrunken log2 fold change": 0.176},
      {"sequence": "RRIRGRPPRLPRPRPRPPKMPRP", "shrunken log2 fold change": 0.348},
      {"sequence": "RRIRGRPPRLPRPRPRPPLPPRP", "shrunken log2 fold change": 1.01},
      {"sequence": "RRIRGRPPRLPRPRPRPPLRPRP", "shrunken log2 fold change": 0.796},
      {"sequence": "RRIRGRPPRLPRPRPRPPMIPRP", "shrunken log2 fold change": -0.0528},
      {"sequence": "RRIRGRPPRLPRPRPRPPMRPRP", "shrunken log2 fold change": 1.39},
      {"sequence": "RRIRGRPPRLPRPRPRPPNNPRP", "shrunken log2 fold change": 0.835},
      {"sequence": "RRIRGRPPRLPRPRPRPPNTPRP", "shrunken log2 fold change": 0.516},
      {"sequence": "RRIRGRPPRLPRPRPRPPPCPRP", "shrunken log2 fold change": 1.16},
      {"sequence": "RRIRGRPPRLPRPRPRPPPEPRP", "shrunken log2 fold change": 2.01},
      {"sequence": "RRIRGRPPRLPRPRPRPPPLPRP", "shrunken log2 fold change": 1.16},
      {"sequence": "RRIRGRPPRLPRPRPRPPRHPRP", "shrunken log2 fold change": 0.818},
      {"sequence": "RRIRGRPPRLPRPRPRPPRTPRP", "shrunken log2 fold change": 1.33},
      {"sequence": "RRIRGRPPRLPRPRPRPPTRPRP", "shrunken log2 fold change": 1},
      {"sequence": "RRIRGRPPRLPRPRPRPPVGPRP", "shrunken log2 fold change": 0.579},
      {"sequence": "RRIRGRPPRLPRPRPRPPVLPRP", "shrunken log2 fold change": 0.25},
      {"sequence": "RRIRGRPPRLPRPRPRPPVVPRP", "shrunken log2 fold change": 1.7},
      {"sequence": "RRIRGRPPRLPRPRPRPPWIPRP", "shrunken log2 fold change": 0.256},
      {"sequence": "RRIRGRPPRLPRPRPRPPYHPRP", "shrunken log2 fold change": 0.0679},
      {"sequence": "RRIRGRPPRLPRPRPRPPYKPRP", "shrunken log2 fold change": 0.18},
      {"sequence": "RRIRGRPPRLPRPRPRPPYTPRP", "shrunken log2 fold change": 0.145},
      {"sequence": "RRIRGRPPRLPRPRPRPQADPRP", "shrunken log2 fold change": 0.43},
      {"sequence": "RRIRGRPPRLPRPRPRPQAHPRP", "shrunken log2 fold change": 0.441},
      {"sequence": "RRIRGRPPRLPRPRPRPQCCPRP", "shrunken log2 fold change": 0.168},
      {"sequence": "RRIRGRPPRLPRPRPRPQDLPRP", "shrunken log2 fold change": -0.00287},
      {"sequence": "RRIRGRPPRLPRPRPRPQDVPRP", "shrunken log2 fold change": 0.0766},
      {"sequence": "RRIRGRPPRLPRPRPRPQDYPRP", "shrunken log2 fold change": -0.0805},
      {"sequence": "RRIRGRPPRLPRPRPRPQGSPRP", "shrunken log2 fold change": -0.0808},
      {"sequence": "RRIRGRPPRLPRPRPRPQHHPRP", "shrunken log2 fold change": -0.102},
      {"sequence": "RRIRGRPPRLPRPRPRPQHQPRP", "shrunken log2 fold change": 0.524},
      {"sequence": "RRIRGRPPRLPRPRPRPQINPRP", "shrunken log2 fold change": 0.324},
      {"sequence": "RRIRGRPPRLPRPRPRPQISPRP", "shrunken log2 fold change": 0.259},
      {"sequence": "RRIRGRPPRLPRPRPRPQIWPRP", "shrunken log2 fold change": 0.293},
      {"sequence": "RRIRGRPPRLPRPRPRPQNEPRP", "shrunken log2 fold change": 0.208},
      {"sequence": "RRIRGRPPRLPRPRPRPQQQPRP", "shrunken log2 fold change": 0.843},
      {"sequence": "RRIRGRPPRLPRPRPRPQRWPRP", "shrunken log2 fold change": 0.293},
      {"sequence": "RRIRGRPPRLPRPRPRPQSFPRP", "shrunken log2 fold change": 0.218},
      {"sequence": "RRIRGRPPRLPRPRPRPQTCPRP", "shrunken log2 fold change": 0.403},
      {"sequence": "RRIRGRPPRLPRPRPRPQVFPRP", "shrunken log2 fold change": 0.0336},
      {"sequence": "RRIRGRPPRLPRPRPRPQVKPRP", "shrunken log2 fold change": 0.564},
      {"sequence": "RRIRGRPPRLPRPRPRPQWKPRP", "shrunken log2 fold change": 0.113},
      {"sequence": "RRIRGRPPRLPRPRPRPQWQPRP", "shrunken log2 fold change": -0.134},
      {"sequence": "RRIRGRPPRLPRPRPRPQYSPRP", "shrunken log2 fold change": 0.0802},
      {"sequence": "RRIRGRPPRLPRPRPRPRAAPRP", "shrunken log2 fold change": 1.53},
      {"sequence": "RRIRGRPPRLPRPRPRPRCDPRP", "shrunken log2 fold change": 0.629},
      {"sequence": "RRIRGRPPRLPRPRPRPRDAPRP", "shrunken log2 fold change": 1.21},
      {"sequence": "RRIRGRPPRLPRPRPRPRESPRP", "shrunken log2 fold change": 1.26},
      {"sequence": "RRIRGRPPRLPRPRPRPRFCPRP", "shrunken log2 fold change": 0.569},
      {"sequence": "RRIRGRPPRLPRPRPRPRGPPRP", "shrunken log2 fold change": 1.66},
      {"sequence": "RRIRGRPPRLPRPRPRPRHDPRP", "shrunken log2 fold change": 0.417},
      {"sequence": "RRIRGRPPRLPRPRPRPRKEPRP", "shrunken log2 fold change": 0.363},
      {"sequence": "RRIRGRPPRLPRPRPRPRLFPRP", "shrunken log2 fold change": 1.11},
      {"sequence": "RRIRGRPPRLPRPRPRPRPFPRP", "shrunken log2 fold change": 0.889},
      {"sequence": "RRIRGRPPRLPRPRPRPRPNPRP", "shrunken log2 fold change": 0.64},
      {"sequence": "RRIRGRPPRLPRPRPRPRPSPRP", "shrunken log2 fold change": 0.49},
      {"sequence": "RRIRGRPPRLPRPRPRPRRAPRP", "shrunken log2 fold change": 0.963}
    ]}
  ]
}
